What is called Kd is the free concentration of one partner at which half of the binding sites on the other are occupied at equilibrium, for simple one-to-one binding. A lower Kd goes with higher affinity. What is called stoichiometry N is a count of units in the complex or per binding partner.

No end group written: not given here.

The text below walks through data of PMC9054839, “Mechanism of integrin activation by talin and its cooperation with kindlin” (Nature Communications, 2022).

What all share (details): both partners purified
The target in one assay is T1, paxillin 1–160 (human, UniProt P49023-3 1-160).
T1 construct: paxillin-γ, human, N-terminal 1-160 containing LD1 and LD2, in pGST-1; also called paxillin-γ 1–160; paxillin N-terminal 1–160; source: E. coli BL21 (DE3), purified (GST column, gel filtration)
As to the kind of experiment: SPR; paxillin 1–160 amine-coupled to CM5, talin subdomains (0–12 μM) flowed over; 50 mM sodium phosphate pH 6.8, 150 mM NaCl, 25 °C; talin-R1–R4 fitted by a two-state model. For orientation: In SPR one partner is held on a chip, and binding of the other changes the refractive index at the surface.

Assay [1] has as its target T2, constitutively activated full-length talin mutant tlnM3 (M319A, T1767L, E1770K) (mouse, UniProt P26039 1-2541, M319A | T1767L | E1770K).
T2 construct: talin (talin-1), mouse, full length 1-2541, in pET28T; also called active talin; talinFL TM; source: E. coli BL21 (DE3), purified (nickel column, Superose-6 gel filtration)
The assay is described as follows: SPR; tlnM3 amine-coupled to CM5, paxiFL (0–500 nM) flowed over; 50 mM sodium phosphate pH 6.8, 150 mM NaCl, 25 °C; 1:1 model.

In assay [2] the target is T2, constitutively activated full-length …. As to the kind of experiment: SPR; GST-integrin beta3CT amine-coupled to CM5, talinH or tlnM3 (0–125 nM) flowed over; 50 mM sodium phosphate pH 6.8, 150 mM NaCl, 0.05% Tween 20, 0.03% BSA, 25 °C.
The target is the same in assay [3]. As to the kind of experiment: pull-down; GST-paxillin (full length or fragments) on glutathione-Sepharose 4B beads, talin or talin fragments as prey; 25 mM Tris-HCl pH 7.5, 150 mM NaCl, 0.5 mM TCEP, 0.01 or 0.1% NP40, 4 °C; western blot or Coomassie. (In general: Immunoblotting shows a protein as a band on a membrane.)

T2 sequence (P26039 whole entry M319A/T1767L/E1770K): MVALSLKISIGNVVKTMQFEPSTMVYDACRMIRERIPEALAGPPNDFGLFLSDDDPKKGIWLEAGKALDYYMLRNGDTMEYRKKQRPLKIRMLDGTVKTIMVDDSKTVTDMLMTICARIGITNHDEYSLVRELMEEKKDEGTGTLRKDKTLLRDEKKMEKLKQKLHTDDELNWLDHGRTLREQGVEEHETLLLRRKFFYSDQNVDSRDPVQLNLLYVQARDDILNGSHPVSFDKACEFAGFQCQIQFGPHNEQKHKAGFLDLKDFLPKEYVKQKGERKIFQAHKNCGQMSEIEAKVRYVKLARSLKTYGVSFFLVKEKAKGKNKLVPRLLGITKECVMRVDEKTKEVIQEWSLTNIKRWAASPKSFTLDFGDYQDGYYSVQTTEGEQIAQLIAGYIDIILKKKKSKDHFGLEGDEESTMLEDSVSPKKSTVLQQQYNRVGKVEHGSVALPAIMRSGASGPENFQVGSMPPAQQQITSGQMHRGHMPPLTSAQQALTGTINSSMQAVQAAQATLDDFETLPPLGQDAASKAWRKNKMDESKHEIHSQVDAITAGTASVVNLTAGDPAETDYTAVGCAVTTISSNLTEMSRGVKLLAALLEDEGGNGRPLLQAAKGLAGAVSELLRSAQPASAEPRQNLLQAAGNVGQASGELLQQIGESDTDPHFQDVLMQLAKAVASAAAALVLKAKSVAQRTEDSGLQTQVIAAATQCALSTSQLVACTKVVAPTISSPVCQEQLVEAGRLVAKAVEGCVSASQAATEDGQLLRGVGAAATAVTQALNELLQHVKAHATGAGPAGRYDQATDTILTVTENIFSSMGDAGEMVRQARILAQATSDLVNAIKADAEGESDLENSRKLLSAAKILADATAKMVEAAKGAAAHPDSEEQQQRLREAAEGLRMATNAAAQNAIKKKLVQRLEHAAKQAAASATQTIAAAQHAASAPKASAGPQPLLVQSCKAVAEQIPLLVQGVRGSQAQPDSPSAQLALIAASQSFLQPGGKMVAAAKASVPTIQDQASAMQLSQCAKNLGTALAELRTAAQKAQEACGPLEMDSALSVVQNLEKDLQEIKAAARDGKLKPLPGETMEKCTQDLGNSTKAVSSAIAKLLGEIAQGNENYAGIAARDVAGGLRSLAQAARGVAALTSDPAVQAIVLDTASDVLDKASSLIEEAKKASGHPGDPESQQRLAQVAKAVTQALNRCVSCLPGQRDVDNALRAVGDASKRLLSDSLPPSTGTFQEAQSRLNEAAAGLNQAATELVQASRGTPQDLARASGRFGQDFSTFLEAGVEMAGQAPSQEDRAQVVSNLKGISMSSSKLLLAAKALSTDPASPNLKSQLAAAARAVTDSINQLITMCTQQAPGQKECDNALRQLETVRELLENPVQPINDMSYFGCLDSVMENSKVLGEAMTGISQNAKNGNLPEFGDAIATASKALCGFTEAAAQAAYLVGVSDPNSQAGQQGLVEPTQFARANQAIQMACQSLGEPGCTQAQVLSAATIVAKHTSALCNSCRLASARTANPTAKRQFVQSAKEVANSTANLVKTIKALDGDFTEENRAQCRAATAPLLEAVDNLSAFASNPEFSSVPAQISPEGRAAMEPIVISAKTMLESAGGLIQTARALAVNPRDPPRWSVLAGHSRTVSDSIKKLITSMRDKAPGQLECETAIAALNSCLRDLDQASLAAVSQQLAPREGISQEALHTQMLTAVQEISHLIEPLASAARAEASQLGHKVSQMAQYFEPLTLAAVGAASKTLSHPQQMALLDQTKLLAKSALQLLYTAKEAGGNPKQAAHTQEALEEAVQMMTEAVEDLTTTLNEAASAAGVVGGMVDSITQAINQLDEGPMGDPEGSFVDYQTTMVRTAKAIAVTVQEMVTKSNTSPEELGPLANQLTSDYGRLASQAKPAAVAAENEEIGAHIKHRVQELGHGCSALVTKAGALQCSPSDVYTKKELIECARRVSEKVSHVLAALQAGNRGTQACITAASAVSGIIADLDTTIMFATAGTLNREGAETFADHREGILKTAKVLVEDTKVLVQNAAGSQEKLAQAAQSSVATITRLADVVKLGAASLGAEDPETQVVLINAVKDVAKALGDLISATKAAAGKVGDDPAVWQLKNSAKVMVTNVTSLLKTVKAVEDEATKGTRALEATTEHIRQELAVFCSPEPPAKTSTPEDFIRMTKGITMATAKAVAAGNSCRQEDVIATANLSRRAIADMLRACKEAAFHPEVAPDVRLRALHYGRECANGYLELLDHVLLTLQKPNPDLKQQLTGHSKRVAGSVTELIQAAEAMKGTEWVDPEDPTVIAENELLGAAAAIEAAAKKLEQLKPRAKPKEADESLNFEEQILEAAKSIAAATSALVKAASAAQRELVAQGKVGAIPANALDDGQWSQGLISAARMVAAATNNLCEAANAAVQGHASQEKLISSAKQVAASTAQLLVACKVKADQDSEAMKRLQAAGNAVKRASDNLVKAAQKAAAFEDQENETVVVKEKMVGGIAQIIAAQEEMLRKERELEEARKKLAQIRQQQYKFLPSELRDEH
T1 sequence (P49023 1-160): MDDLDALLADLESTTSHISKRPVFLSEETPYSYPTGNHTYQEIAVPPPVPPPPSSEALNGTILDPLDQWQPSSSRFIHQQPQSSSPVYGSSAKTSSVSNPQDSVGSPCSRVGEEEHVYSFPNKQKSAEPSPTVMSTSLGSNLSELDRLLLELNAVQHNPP

B1: talin-F3 (domain or fragment)
chain: GVSFFLVKEKMKGKNKLVPRLLGITKECVMRVDEKTKEVIQEWSLTNIKRWAASPKSFTLDFGDYQDGYYSVQTTEGEQIAQLIAGYIDIILKKKKS
The molecule B1 showed a Kd with paxillin 1–160 of around 3.51 µM.

B2: talin-R2 (domain or fragment, mouse, UniProt P26039 655-782, looked up)
chain: IGESDTDPHFQDVLMQLAKAVASAAAALVLKAKSVAQRTEDSGLQTQVIAAATQCALSTSQLVACTKVVAPTISSPVCQEQLVEAGRLVAKAVEGCVSASQAATEDGQLLRGVGAAATAVTQALNELL
notes: talin (talin-1), mouse, rod subdomain R2; source: E. coli BL21 (DE3), purified
In the assay with paxillin 1–160, B2 displayed a dissociation constant Kd of around 2.21 µM.

B3: full-length paxillin (natural protein)
chain: not shown
notes: also called paxiFL; paxillin-γ; source: E. coli BL21 (DE3), purified (GST column, gel filtration)
As to B3, in assay [1], the Kd is around 33.1 nM and the “stoichiometry N” value stood at 1.

B4: GST-integrin beta3 cytoplasmic tail (domain or fragment, UniProt P05106 742-788, looked up)
chain: {GST}-KLLITIHDRKEFAKFEEERARAKWDTANNPLYKEATSTFTNITYRGT
notes: integrin β3 cytoplasmic tail; also called integrin-β3 CT; GST-integrin beta3CT; source: E. coli BL21 (DE3), purified
Take B4: the dissociation constant (Kd) in assay [2] is around 14.5 nM.

B5: GST-paxillin 1–160 (domain or fragment)
chain: not shown
notes: paxillin-γ, human, N-terminal 1-160 containing LD1 and LD2, in pGST-1; also called paxi1–160; source: E. coli BL21 (DE3), purified (GST column, gel filtration)
As to B5, the binding result in assay [3] is on record as “binds”.

B6: talin-R8 (domain or fragment, mouse, UniProt P26039 1461-1580, looked up)
chain: LVEPTQFARANQAIQMACQSLGEPGCTQAQVLSAATIVAKHTSALCNSCRLASARTANPTAKRQFVQSAKEVANSTANLVKTIKALDGDFTEENRAQCRAATAPLLEAVDNLSAFASNPE
notes: talin (talin-1), mouse, rod subdomain R8; source: E. coli BL21 (DE3), purified
As for B6, in the assay with paxillin 1–160, the dissociation constant Kd was around 5.37 µM.
